# Source: patent publication US20170226169A1
# Molecular target: 109QmHtt (UniProt P42858)
# Test: cell-based or functional assay
# Sequence of 109QmHtt (P42858 other isoform, or with tags, fused parts or gaps): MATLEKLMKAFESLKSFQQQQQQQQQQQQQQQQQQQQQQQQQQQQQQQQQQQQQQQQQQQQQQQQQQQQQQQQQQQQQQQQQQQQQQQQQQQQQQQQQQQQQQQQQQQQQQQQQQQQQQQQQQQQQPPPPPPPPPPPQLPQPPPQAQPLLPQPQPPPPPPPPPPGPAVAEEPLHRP
row,Binder,"average size of the aggregates (TIRF microscopy, Neuro2a cells) [µm^2]"
1,RRRRRRRRWD (C-terminal amide (CONH2)) [8R],3.3
2,RRRRRRRRWDQQQQQQQQQQ (C-terminal amide (CONH2)) [8R10Q],0.3

# Now from value to binder:
row,"average size of the aggregates (TIRF microscopy, Neuro2a cells) [µm^2]",Binder
1,0.2,RRRRRRRRWDQQQQQQQQQQQQQQQ (C-terminal amide (CONH2)) [8R15Q]
2,1.7,RQQRRQQDQRQWQRQRQQR (C-terminal amide (CONH2)) [s8R10Q]
